Results reported in publication PMC8857482.

T1: Csy complex (type I-F surveillance complex: Cas8f, Cas5f, Cas7f, Cas6f + crRNA) (Pseudomonas aeruginosa, UniProt Q02ML9;Q02MM0;Q02MM1;Q02MM2 1-434;1-327;1-342;1-187)
T1 sequence 1: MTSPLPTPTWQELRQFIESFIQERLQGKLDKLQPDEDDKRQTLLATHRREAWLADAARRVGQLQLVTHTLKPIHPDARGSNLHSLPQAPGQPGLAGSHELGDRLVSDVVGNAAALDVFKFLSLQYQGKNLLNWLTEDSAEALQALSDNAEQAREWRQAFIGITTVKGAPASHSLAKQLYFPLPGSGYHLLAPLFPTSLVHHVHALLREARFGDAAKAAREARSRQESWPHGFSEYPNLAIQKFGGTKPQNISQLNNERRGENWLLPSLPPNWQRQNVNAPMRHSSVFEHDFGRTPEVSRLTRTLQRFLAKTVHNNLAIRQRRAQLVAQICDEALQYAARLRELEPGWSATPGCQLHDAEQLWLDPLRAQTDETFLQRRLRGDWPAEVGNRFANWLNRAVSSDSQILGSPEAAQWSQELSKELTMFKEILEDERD
T1 sequence 2: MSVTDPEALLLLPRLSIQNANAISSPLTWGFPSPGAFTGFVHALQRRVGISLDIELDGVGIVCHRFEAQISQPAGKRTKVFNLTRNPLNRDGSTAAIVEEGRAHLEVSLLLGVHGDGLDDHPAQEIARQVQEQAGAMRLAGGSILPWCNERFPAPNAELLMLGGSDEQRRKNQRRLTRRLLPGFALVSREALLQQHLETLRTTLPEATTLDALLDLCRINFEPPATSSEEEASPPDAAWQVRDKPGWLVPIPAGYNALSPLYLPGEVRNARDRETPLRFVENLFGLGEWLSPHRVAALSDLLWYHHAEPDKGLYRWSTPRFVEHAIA
T1 sequence 3: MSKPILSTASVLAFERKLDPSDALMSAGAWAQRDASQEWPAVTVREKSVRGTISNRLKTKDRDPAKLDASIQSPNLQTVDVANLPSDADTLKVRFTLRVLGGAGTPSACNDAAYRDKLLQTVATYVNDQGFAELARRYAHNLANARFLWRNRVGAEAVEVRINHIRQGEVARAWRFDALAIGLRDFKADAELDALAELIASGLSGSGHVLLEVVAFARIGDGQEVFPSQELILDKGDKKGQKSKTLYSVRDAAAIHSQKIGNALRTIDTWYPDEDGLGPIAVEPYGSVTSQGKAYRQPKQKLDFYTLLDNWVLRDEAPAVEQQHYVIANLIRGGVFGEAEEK
T1 sequence 4: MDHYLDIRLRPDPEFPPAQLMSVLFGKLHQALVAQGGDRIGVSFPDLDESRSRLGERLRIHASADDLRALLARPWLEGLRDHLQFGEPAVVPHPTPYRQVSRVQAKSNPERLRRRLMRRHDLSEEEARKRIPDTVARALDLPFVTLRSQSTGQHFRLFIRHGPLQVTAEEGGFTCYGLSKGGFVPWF

B1: 54 bp target dsDNA (dsDNA)
DNA 1: GGAAGCCATCCAGGTAGACGCGGACATCAAGCCCGCCGTGAAGGTGCAGCTGCT
DNA 2: AGCAGCTGCACCTTCACGGCGGGCTTGATGTCCGCGTCTACCTGGATGGCTTCC

How the values were obtained:
[1] = target: Csy complex with Cas7f (K58A/K60A) (Pseudomonas aeruginosa) (UniProt Q02ML9); experiment: MST
[2] = target: Csy complex with Cas8f (N250D) (Pseudomonas aeruginosa) (UniProt Q02ML9); experiment: MST
[3] = target: type I-F CRISPR-Cas surveillance complex (Csy complex) (Pseudomonas aeruginosa) (UniProt Q02ML9); experiment: MST
[4] = target: T1, Csy complex (type I-F surveillance …); experiment: EMSA

Molecule	Kd [3] [µM]	other results
AcrIF13 (natural protein)	0.00151	Kd [1]: 0.0342 µM; Kd [2]: 0.647 µM
AcrIF13 D21K/E22K (natural protein)	0.0298	–
AcrIF13 D43K/D44K (natural protein)	0.00185	–
AcrIF13 D45K/D46K (natural protein)	0.00622	–
AcrIF13 D63K (natural protein)	0.0246	–
AcrIF13 D102K (natural protein)	0.00921	–
AcrIF13 D113K (natural protein)	0.0677	–
AcrIF13 E10K (natural protein)	0.0223	–
AcrIF13 E18K (natural protein)	0.00255	–
AcrIF13 E40K (natural protein)	0.00517	–
AcrIF13 E50K (natural protein)	0.0181	–
AcrIF13 E57K (natural protein)	0.00539	–
AcrIF13 E82K/E83K/D84K (natural protein)	0.00722	–
AcrIF13 E97K (natural protein)	0.0143	–
B1	–	binding result [4]: binds
